For this data set the following is noted: Homo sapiens; pH 7.8; Thermal; DSC; potassium phosphate 2 mM; transition: 2; reversible: Yes; whole UniProt chain shown.

B1: Superoxide dismutase [Mn], mitochondrial wild type, P04179 (protein)
chain: MLSRAVCGTSRQLAPVLGYLGSRQKHSLPDLPYDYGALEPHINAQIMQLHHSKHHAAYVNNLNVTEEKYQEALAKGDVTAQIALQPALKFNGGGHINHSIFWTNLSPNGGGEPKGELLEAIKRDFGSFDKFKEKLTAASVGVQGSGWGWLGFNKERGHLQIAACPNQDPLQGTTGLIPLLGIDVWEHAYYLQYKNVRPDYLKAIWNVINWENVTERYMACKK
Usually Tm stands for the temperature at the midpoint of the melting transition. In the case of B1, the midpoint of thermal melting (Tm) was 88.9 °C and the “unfolding enthalpy (calorimetric)” value turned out to be 90.6 kcal/mol.

Values taken from FireProtDB (doi:10.1021/bi972395d).
